Key:
HL60 = assay: Cytotoxic activity, cell growth test using WST-8, HL60; type: cell-based; conditions: FIG. 6
Protocol: (§1) Acute myeloid leukemia cell line HL60 (American Type Culture Collection, Manassas, Va., USA) and Burkitt's lymphoma cell line BLTH (kindly gifted from Prof Hirose at The University of Tokushima, Br. J. Cancer (1987) 56: 413-417) were cultured in the presence of vincristine to obtain vincristine-resistant cell lines HL60-R and BLTH-R.
(§2) First, these tumor cells were used to examine their susceptibility to C3B3-DB. These tumor cells were cultured in the presence of various concentrations of C3B3-DB and then antitumor activity (cytotoxic activity) of C3B3-DB was measured by cell growth tests using WST-8 (Kishida Chemicals, Osaka).
(§3) In addition, whether or not drug resistance in chemotherapeutic agent-resistant tumor cells can be overcome (improved) was examined by culturing these cells in the presence or absence of C3B3-DB (0.1 μg/mL) for six hours and then adding vincristine.

BLTH = assay: Cytotoxic activity, cell growth test using WST-8, BLTH; type: cell-based; conditions: FIG. 6
Protocol: as §1, §2, §3

parent cell lines = assay: Daunorubicin uptake into cells (accumulation and efflux phase, flow cytometry), parent cell lines; type: cell-based; conditions: FIG. 8
Protocol: (§4) To elucidate the mechanism of overcoming drug (chemotherapeutic agent)-resistance using C3B3-DB, MDR1 expression on the cell surface was examined after treating these cells for six hours with C3B3-DB (0.1 μg/mL). […] Furthermore, treatment of these cells with C3B3-DB was followed by culturing these cells in the presence of daunorubicin (0.1 μg/mL, Meiji Seika, Tokyo) and the amount of daunorubicin uptake into cells were compared.
(§5) Specifically, uptake of the pharmaceutical agent into the cells (accumulation phase) was evaluated by culturing the cells for two hours in the presence or absence of C3B3-DB, then adding daunorubicin and culturing the cells for 30 minutes, washing the cells, and then measuring the PE intensity by flow cytometry. The cells were cultured for another 30 minutes to evaluate persistence of the pharmaceutical agent in the cells (efflux phase) in a same manner using flow cytometry.

[1] = system: vincristine-resistant cell lines; assay: Daunorubicin uptake into cells (accumulation and efflux phase, flow cytometry), vincristine-resistant cell lines; type: cell-based; conditions: FIG. 8
Protocol: as §4, §5

HL60-R = assay: Cytotoxic activity, cell growth test using WST-8, HL60-R; type: cell-based
Protocol: as §1, §2, §3

BLTH-R = assay: Cytotoxic activity, cell growth test using WST-8, BLTH-R; type: cell-based
Protocol: as §1, §2, §3

MDR1 = MDR1 expression on the cell surface after C3B3-DB treatment (flow cytometry); type: cell-based; conditions: six hours with C3B3-DB 0.1 μg/mL, chemotherapeutic agent-resistant cell lines, FIG. 7
Source text: MDR1 expression on the cell surface was examined by flow cytometry using anti-MDR1 antibody (UIC-2, Chemicon, Temecula, Calif., USA) and FITC-labeled goat anti-mouse IgG antibody (Biosource, Camarillo, Calif., USA). Mouse IgG (BD Biosciences, San Jose, Calif., USA) was used for the control antibody.
as §4

activated lymphocytes = conditions: cited from earlier work
human myeloma cells = conditions: various human myeloma cell lines; cited from earlier work
[2] = used alone, compared with 2D7 diabody used alone, Patent Document 5; cited from earlier work
[3] = system: multiple myeloma model mice generated by transplanting human myeloma cell line; conditions: cited from earlier work
[4] = C3B3-DB two hours then daunorubicin

CC[C@]1(O)C[C@H]2CN(CCc3c([nH]c4ccccc34)[C@@](C(=O)OC)(c3cc4c(cc3OC)N(C=O)[C@H]3[C@@](O)(C(=O)OC)[C@H](OC(C)=O)[C@]5(CC)C=CCN6CC[C@]43[C@@H]65)C2)C1 [vincristine, reference compound]
cell injury by vincristine (HL60; HL60, with or without C3B3-DB pre-treatment): concentration-dependent cell injury | cell injury by vincristine (BLTH; with or without C3B3-DB pre-treatment): concentration-dependent cell injury

COc1cccc2c1C(=O)c1c(O)c3c(c(O)c1C2=O)C[C@@](O)(C(C)=O)C[C@@H]3O[C@H]1C[C@H](N)[C@H](O)[C@H](C)O1 [daunorubicin, reference compound]
amount of daunorubicin uptake into cells (parent cell lines; daunorubicin 0.1 μg/mL, accumulation and efflux phase): a certain amount of daunorubicin was taken up | amount of daunorubicin uptake into cells ([1]; daunorubicin 0.1 μg/mL, both phases): significantly decreased

B1: C3B3-DB: C3B3 diabody, a low-molecular-weight antibody of the C3B3 antibody recognizing HLA class I (protein)
scFv: EVKLVESEGGLVQPGSSMKLSCTASGFTFSDHYMAWVRQVPEKGLEWVADINYDGSRTYYLDSLKSRFIISRDNGKNILYLQMSSLKSEDTATYYCARDRVRSSYYSNLFAMDYWGQGISVTVSSGGGGSDIQMTQTTSSLSASLGDRVTISCRASQDIANYLNWYQQKPDGTVKLLIYYTSRLHSGVPSRFSGSGSGTDYSLTISNLEPEDIATYYCQQYSKLPYTFGSGTKLEIK
modifications: left off: small tags and cut ends
cytotoxic activity enhancement of vincristine due to pre-treatment (HL60; HL60, C3B3-DB 0.1 μg/mL for six hours then vincristine): not observed | cytotoxic activity enhancement of vincristine due to pre-treatment (BLTH; C3B3-DB 0.1 μg/mL for six hours then vincristine): not observed | cytotoxic activity (survival rate of the cells) (HL60-R; C3B3-DB alone, 24 hours, HL60-R compared with parent HL60, FIG. 5): cell injury was induced at lower concentrations | cytotoxic activity enhancement of vincristine due to pre-treatment (HL60-R; HL60-R, C3B3-DB 0.1 μg/mL for six hours then vincristine, FIG. 6): enhanced | cytotoxic activity enhancement of vincristine due to pre-treatment (BLTH-R; BLTH-R, C3B3-DB 0.1 μg/mL for six hours then vincristine, FIG. 6): enhanced | cytotoxic activity (survival rate of the cells) (BLTH-R; C3B3-DB alone, 24 hours, BLTH-R compared with parent BLTH, FIG. 5): cell injury was induced at lower concentrations | MDR1 expression on the cell surface (MDR1): decrease in some cells | pre-treatment effect on amount of daunorubicin uptake (parent cell lines; [4]): not observed | pre-treatment effect on amount of daunorubicin uptake [1, 4]: increased the amount of uptake | cell death-inducing activity (activated lymphocytes): strong cell death-inducing activity | cell death-inducing activity (human myeloma cells): strong cell death-inducing activity | antitumor effects [2]: stronger antitumor effects than 2D7 diabody | survival benefit [3]: significant survival benefit

Reference: US20100092461A1, “Remedy For Chemotherapy-Resistant Cancer Containing HLA Class I-Recognizing Antibody as the Active Ingredient and Use of the Same” (CHUGAI SEIYAKU KABUSHIKI KAISHA, priority 2007, published 2010)
